Consider two sequences from patent publication US20140173783.

Series [1] has as its system ZFN 25716 (E32 ZFN6 monomer) (artificial). Put plainly: cell_activity. The settings on record: pair 25716/25717, NGS indels in maize Hi-II callus.
Series [2] deals with ZFN 25717 (E32 ZFN6 monomer) (artificial). The experiment in a line: cell_activity. The settings on record: pair 25716/25717, NGS indels in maize Hi-II callus.

In turn, “TGATCGCATCGGGCATCGGCGACTGATG (double strand) [25716 target]” displayed an activity (% of IPPK2 ZFN activity) in series [1] of 380.

The sequence “CGGAAGCGGATGGCCCGCTTCTTTAGAA (double strand) [25717 target]” returned an activity (% of IPPK2 ZFN activity) in series [2] of 380.
